For one substance, percent of total pIgA-R coimmunoprecipitated (% of total pIgA-R) results are on record in paper PMC2904422.

The target in the assay is myelin and lymphocyte protein 2 (MAL2) (rat (endogenous in WIF-B)) (UniProt Q7TPB7). The experiment in a line: co-IP.

“polymeric immunoglobulin A-receptor (pIgA-R), mature form (from UniProt P15083 19-769)” returned a percent of total pIgA-R coimmunoprecipitated (% of total pIgA-R) of 1.
